Measured values from the supplement of paper PMC6757056.
± gives the standard deviation of the averaged measurements.

B1: library; a variant is named by its letters at N, in order (parent)
chain: GCUGUCACCGGUGCUUGGUACGUUAUAUUCAGCCGGUCUGAUGAGUCUNNNNNNAGACGAAACAGC

Experiments:
(6R,S)-folinic acid [1] = variants of: B1; test: FACS-Seq fitted mean relative fluorescence mCherry/BFP without ligand (log10 relative fluorescence); HEK293T overexpressing SLC46A1; higher = higher reporter protein expression; settings: without (6R,S)-folinic acid; ligand present: no
Procedure, shortened: (§1)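 An mCherry reporter containing the ribozyme switch and an EF1α-BFP marker were introduced by lentivirus into HEK293T libraries. Cells were enriched, incubated 48 h with or without ligand, sorted into 6 bins by mCherry/BFP, and bin genomic DNA was PCR-amplified, barcoded and sequenced on MiSeq. Fluorescence represents the normalized fitted normal mean of the bin counts. Fitting was done on log10(mCherry/BFP), scaling to five spiked-in control ribozymes.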

(6R,S)-folinic acid [2] = variants of: B1; test: normalized RNA/DNA level without ligand (relative to sTRSVctl = 100) (log10 (% of sTRSVctl)); HEK293T overexpressing SLC46A1; higher = less ribozyme self-cleavage, higher mRNA level; settings: without (6R,S)-folinic acid; ligand present: no
Procedure, shortened: (§2)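 Library plasmids carrying ribozyme switches linked to mCherry, or to eGFP in some ligand experiments, were transfected into HEK293T at 4 µg per 6-well well, with any ligand added 1 h earlier. Seventy-two hours on, total RNA was extracted with EDTA and reverse-transcribed, amplified, barcoded and sequenced. RNA level was RNA over DNA reads normalized to a spiked-in non-cleaving sequence or to the top sequences, then scaled and log-transformed. The top set was 25 sequences, the transform was ×100 and log10, and sequences needed ≥100 DNA reads.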

(6R,S)-folinic acid [3] = variants of: B1; test: FACS-Seq fitted mean relative fluorescence mCherry/BFP with ligand (log10 relative fluorescence); HEK293T overexpressing SLC46A1; ligand concentration (+) FACS-Seq: 6 mM; higher = higher reporter protein expression; settings: with (6R,S)-folinic acid; ligand present: yes
Procedure, shortened: as §1

(6R,S)-folinic acid [4] = variants of: B1; test: normalized RNA/DNA level with ligand (relative to sTRSVctl = 100) (log10 (% of sTRSVctl)); HEK293T overexpressing SLC46A1; ligand concentration (+) RNA-Seq: 6 mM; higher = less ribozyme self-cleavage, higher mRNA level; settings: with (6R,S)-folinic acid; ligand present: yes
Procedure, shortened: as §2

Variant	FACS-Seq fitted mean (log10) ((6R,S)-folinic acid [1])	normalized RNA/DNA level without ligand (log10) ((6R,S)-folinic acid [2])	FACS-Seq fitted mean (log10) ((6R,S)-folinic acid [3])	normalized RNA/DNA level with ligand (log10) ((6R,S)-folinic acid [4])
UCAGAU	0.523 ± 0.0091	1.95 ± 0.0075	0.201 ± 0.13	2.013 ± 0.011
ACAAGG	0.526 ± 0.062	1.913 ± 0.014	0.524 ± 0.13	2.016 ± 0.014
ACAACA	0.197 ± 0.026	2.032 ± 0.003	0.27 ± 0.24	2.03 ± 0.04
AAUCAG	0.0995 ± 0.041	1.969 ± 0.0032	0.228 ± 0.25	2.02 ± 0.045
GAUGUG	0.409 ± 0.09	1.889 ± 0.0086	0.576 ± 0.27	2.02 ± 0.021
GAUGUC	0.311 ± 0.066	2.021 ± 0.013	0.392 ± 0.21	1.991 ± 0.014
GAUGUA	0.1 ± 0.0045	1.937 ± 0.004	0.322 ± 0.11	2.001 ± 0.02
GAUGUU	0.317 ± 0.026	1.976 ± 0.0069	0.463 ± 0.066	2.01 ± 0.031
GAUGGC	0.227 ± 0.13	1.967 ± 0.019	0.542 ± 0.2	2.01 ± 0.021
GAUGGU	0.536 ± 0.091	2.004 ± 0.0039	0.622 ± 0.045	2.02 ± 0.049
UCAAUG	0.183 ± 0.076	1.814 ± 0.0085	0.195 ± 0.15	2 ± 0.037
AAUAGA	0.354 ± 0.04	1.96 ± 0.024	0.344 ± 0.043	2.01 ± 0.034
AAUAGG	0.164 ± 0.037	1.877 ± 0.0074	0.334 ± 0.2	1.99 ± 0.028
AAUAGU	0.361 ± 0.12	1.928 ± 0.0047	0.623 ± 0.097	1.978 ± 0.018
UAUUAC	0.106 ± 0.011	1.984 ± 0.0099	0.38 ± 0.24	2 ± 0.035
UAUUAA	-0.696 ± 0.074	1.946 ± 0.0091	-0.811 ± 0.25	1.98 ± 0.037
UAUUAG	-0.162 ± 0.24	1.781 ± 0.0025	0.0465 ± 0.094	1.98 ± 0.054
CAUUUG	0.428 ± 0.042	2.05 ± 0.0064	0.431 ± 0.069	2.06 ± 0.025
CAUUUU	0.383 ± 0.084	1.982 ± 0.015	0.284 ± 0.047	1.99 ± 0.043
GCACAC	-0.179 ± 0.1	1.966 ± 0.0048	-0.0397 ± 0.2	2 ± 0.037
GCACAA	-0.45 ± 0.18	1.9848 ± 8e-05	-1.15 ± 0.17	2 ± 0.039
CCAGCC	0.159 ± 0.022	2.05 ± 0.025	-0.0156 ± 0.022	2.03 ± 0.039
CAUGUG	0.241 ± 0.086	2 ± 0.025	0.351 ± 0.27	1.992 ± 0.011
CAUGUU	-0.0794 ± 0.016	2.027 ± 0.017	-0.27 ± 0.064	2.04 ± 0.029

Variant	FACS-Seq fitted mean (log10) ((6R,S)-folinic acid [1])	normalized RNA/DNA level without ligand (log10) ((6R,S)-folinic acid [2])	FACS-Seq fitted mean (log10) ((6R,S)-folinic acid [3])	normalized RNA/DNA level with ligand (log10) ((6R,S)-folinic acid [4])
ACACAU	0.23 ± 0.019	1.965 ± 0.0028	0.348 ± 0.25	2 ± 0.043
GAUUUA	0.4 ± 0.091	2.024 ± 0.019	0.664 ± 0.15	2.03 ± 0.021
UCAACC	0.654 ± 0.28	2.04 ± 0.023	0.606 ± 0.39	1.978 ± 0.017
UCAACU	0.46 ± 0.092	2.03 ± 0.0056	0.559 ± 0.13	2.04 ± 0.027
CAUUAC	0.716 ± 0.11	1.984 ± 0.003	0.484 ± 0.06	1.98 ± 0.036
CAUUAU	0.4935 ± 0.0016	1.976 ± 0.011	0.36 ± 0.13	1.98 ± 0.056
AAUACU	0.3 ± 0.014	1.995 ± 0.017	0.384 ± 0.13	1.99 ± 0.026
AAUACC	0.72 ± 0.071	2.028 ± 0.004	0.469 ± 0.062	2.03 ± 0.031
UAUGGA	0.416 ± 0.029	1.828 ± 0.012	0.472 ± 0.013	1.98 ± 0.021
UAUGGC	-0.0353 ± 0.039	1.948 ± 0.014	-0.149 ± 0.14	2 ± 0.032
UAUGGG	0.1983 ± 0.0014	1.54 ± 0.028	0.816 ± 0.12	1.91 ± 0.045
AAUGGU	0.406 ± 0.13	1.9355 ± 0.00018	0.51 ± 0.099	2 ± 0.055
AAUGGG	0.225 ± 0.07	1.8 ± 0.022	0.233 ± 0.18	2 ± 0.021
CAUAAU	0.15 ± 0.15	1.955 ± 0.011	0.294 ± 0.038	1.997 ± 0.013
UCAAGA	0.185 ± 0.046	1.9951 ± 0.0012	0.305 ± 0.13	2.028 ± 0.014
UCAAGC	0.599 ± 0.019	2.071 ± 0.0039	0.553 ± 0.17	2.05 ± 0.04
GAUAGG	0.0382 ± 0.037	1.921 ± 0.013	0.234 ± 0.004	2.01 ± 0.022
GAUAGC	0.145 ± 0.061	1.962 ± 0.017	0.257 ± 0.081	2.022 ± 0.015
GAUAGU	0.846 ± 0.085	1.963 ± 0.018	0.563 ± 0.078	2 ± 0.022
GAUAGA	0.454 ± 0.051	1.959 ± 0.0082	0.537 ± 0.22	2 ± 0.021
UAUGAU	0.263 ± 0.038	1.911 ± 0.013	0.486 ± 0.099	1.97 ± 0.027
UAUGAG	0.159 ± 0.026	1.609 ± 0.0041	0.709 ± 0.075	1.9 ± 0.045
UAUGAC	0.193 ± 0.17	1.971 ± 0.01	0.413 ± 0.083	2 ± 0.053
GAUUGU	0.143 ± 0.011	1.995 ± 0.0038	0.365 ± 0.11	2.024 ± 0.0059

Variant	FACS-Seq fitted mean (log10) ((6R,S)-folinic acid [1])	normalized RNA/DNA level without ligand (log10) ((6R,S)-folinic acid [2])	FACS-Seq fitted mean (log10) ((6R,S)-folinic acid [3])	normalized RNA/DNA level with ligand (log10) ((6R,S)-folinic acid [4])
GAUUGA	0.422 ± 0.12	1.999 ± 0.019	0.519 ± 0.3	2.02 ± 0.048
GCAACU	0.431 ± 0.019	2.0623 ± 0.00038	0.667 ± 0.22	2.06 ± 0.029
AAUCGC	0.375 ± 0.075	2.027 ± 0.017	0.448 ± 0.18	2.01 ± 0.029
AAUCGG	0.494 ± 0.13	1.94 ± 0.017	0.573 ± 0.06	2.01 ± 0.027
UAUCGG	0.113 ± 0.039	1.69 ± 0.028	0.6479 ± 0.00075	1.94 ± 0.028
CCAGAU	0.213 ± 0.0078	2.003 ± 0.0083	0.000255 ± 0.023	2.01 ± 0.027
AAUAUC	0.448 ± 0.061	2.03 ± 0.042	0.348 ± 0.12	2.02 ± 0.048
AAUAUA	0.602 ± 0.02	1.95 ± 0.0055	0.4362 ± 0.00063	1.99 ± 0.039
AAUAUU	0.567 ± 0.082	1.981 ± 0.011	0.295 ± 0.01	1.99 ± 0.029
AAUAUG	0.207 ± 0.053	1.895 ± 0.0025	0.137 ± 0.061	1.99 ± 0.034
UAUUUC	0.248 ± 0.026	2.029 ± 0.0031	0.208 ± 0.2	2.01 ± 0.054
UAUUUG	0.00681 ± 0.018	1.82 ± 0.02	0.373 ± 0.0088	1.976 ± 0.017
UAUUUU	0.372 ± 0.078	2.006 ± 0.0046	0.24 ± 0.13	2.02 ± 0.058
CCAAGU	0.0806 ± 0.0022	2.038 ± 0.0087	0.036 ± 0.024	2.04 ± 0.047
AAUAAU	0.5328 ± 0.0041	1.968 ± 0.0071	0.56 ± 0.14	2.003 ± 0.011
AAUAAG	0.271 ± 0.2	1.9 ± 0.024	0.323 ± 0.13	1.98 ± 0.038
UAUCAA	0.142 ± 0.016	1.957 ± 0.019	0.277 ± 0.084	2 ± 0.053
UAUCAG	0.285 ± 0.25	1.84 ± 0.024	0.328 ± 0.29	1.95 ± 0.025
UAUCAU	0.312 ± 0.043	1.954 ± 0.0086	-0.0472 ± 0.12	1.99 ± 0.041
GAUAAU	0.0792 ± 0.026	1.97 ± 0.02	0.23 ± 0.02	2.01 ± 0.037
ACAGAG	0.511 ± 0.086	1.6069 ± 0.00022	0.928 ± 0.2	1.94 ± 0.048
ACAGAA	0.191 ± 0.02	1.947 ± 0.0015	0.0345 ± 0.24	2 ± 0.024
ACAGAC	0.355 ± 0.071	2.0094 ± 0.0017	0.356 ± 0.3	2.021 ± 0.0097
